Values quoted from earlier work, collected in article PMC8553002 (Journal of Mass Spectrometry and Advances in the Clinical …, 2020).

Settings: insulin degraded by the liver, to a minor extent, kidneys

For “Insulin: hormone released with C-peptide from proinsulin in equimolar amounts”, the half-life is given as 3 to 5 min.
